In assay [1] the target is Recombinant Human PD-1 (R&D Systems Inc) (human) (UniProt Q15116). Nature of the assay: ELISA blocking, PD-1 coated, biotinylated PD-L1Fc, streptavidin-HRP; antibody at 1000 ng/ml.
For assay [2] the target is unchanged. The experiment in a line: ELISA blocking, PD-1 coated, biotinylated PD-L1Fc, streptavidin-HRP; antibody at 1 ng/ml.
Assay [3] has the same target. The experiment in a line: second ELISA blocking assay, PD-1 / PD-L1Fc; reference: unlinked mix of 9E3 and 3H4. Background: An ELISA detects its analyte on a solid surface through an enzyme-linked reagent.
The target is the same in assay [4]. The experiment in a line: ELISA blocking, PD-1 coated, biotinylated PD-L1Fc, streptavidin-HRP; antibody at 0.1 ng/ml.
Assay [5] shares this target. Nature of the assay: ELISA blocking, PD-1 coated, biotinylated PD-L1Fc, streptavidin-HRP; antibody at 0.01 ng/ml.
The target is the same in assay [6]. Nature of the assay: ELISA blocking, PD-1 coated, biotinylated PD-L1Fc, streptavidin-HRP; antibody at 10000 ng/ml.
Assay [7] shares this target. The experiment in a line: ELISA blocking, PD-1 coated, biotinylated PD-L1Fc, streptavidin-HRP; antibody at 100 ng/ml.
For assay [8] the target is unchanged. Nature of the assay: ELISA blocking, PD-1 coated, biotinylated PD-L1Fc, streptavidin-HRP; antibody at 10 ng/ml.
The target is the same in assay [9]. Nature of the assay: ELISA blocking, PD-1 coated, biotinylated PD-L1Fc, streptavidin-HRP; antibody at 0.001 ng/ml.

UniProt Q15116, sequence (Q15116 25-167 limits assumed): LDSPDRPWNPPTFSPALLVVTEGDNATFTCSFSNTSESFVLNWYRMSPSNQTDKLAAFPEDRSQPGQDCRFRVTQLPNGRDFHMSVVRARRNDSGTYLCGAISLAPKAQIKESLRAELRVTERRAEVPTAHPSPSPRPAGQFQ

B1: Bispecific clone GS388 (9E3-17aa-3H4) (bispecific antibody)
chain: QLQLVEFGGGLVQAGGSLRLSCAASGSIFRGNAMVWYRQAPGKERELVATITNGGSTNYADSVKGRFTISRDNAKNTVYLQMNSLKPEDTAIYYCNDVIRGESGIYYPLNYWGQGTQVTVSSGGSEGGGSGGGGESGGGQVQFVESGGGLVQPGGSLRLSCAVSGSTFVVKHFAWFRQPPGNRRELVAATRGEGTTYYRDSVMGRFTISSDNPENTVYLQMTSLQPEDTAVYFCNVRSPGGEEFWGKGTLVTVSS
For the molecule B1, the blocking ELISA signal (PD-L1Fc bound to PD-1) in assay [1] is 0.103; in assay [2] it was 1.09; in assay [4] it was 1.1; in assay [5], 1.12; in assay [6], 0.102; in assay [7], 0.197. In addition, the blocking ELISA signal (PD-L1Fc bound to PD-1) in [8] amounted to 0.947; in assay [9], 1.11. Also, the fold increase in blocking against a simple mix of 9E3 and 3H4 in [3] is greater than 10 fold.

B2: 3H4 single domain antibody (VHH)
VHH: QVQFVESGGGLVQPGGSLRLSCAVSGSTFVVKHFAWFRQPPGNRRELVAATRGEGTTYYRDSVMGRFTISSDNPENTVYLQMTSLQPEDTAVYFCNVRSPGGEEFWGKGTLVTVSS
As for B2, the blocking ELISA signal (PD-L1Fc bound to PD-1) came out at 0.927 in assay [1]; 1.06 in assay [2]; 1.07 in assay [4]; 1.08 in [5]; 0.833 in [6]; 0.964 in [7]. Besides, the blocking ELISA signal (PD-L1Fc bound to PD-1) came to 1.1 in assay [8] and 1.11 in assay [9].

B3: 9E3 single domain antibody (VHH)
VHH: QLQLVEFGGGLVQAGGSLRLSCAASGSIFRGNAMVWYRQAPGKERELVATITNGGSTNYADSVKGRFTISRDNAKNTVYLQMNSLKPEDTAIYYCNDVIRGESGIYYPLNYWGQGTQVTVSS
On to B3, for which the blocking ELISA signal (PD-L1Fc bound to PD-1) in assay [1] amounted to 0.457; in [2], 1.06; in assay [4], 1.08; in assay [5] it was 1.11; in assay [6], 0.104; in [7] it was 0.965. The blocking ELISA signal (PD-L1Fc bound to PD-1) in assay [8] was 1.09; in [9] it was 1.17.
